Experiments:
[1] = target: tau, shortest isoform (tau352)
Sequence of tau, shortest isoform (tau352) (chain, as listed by the source): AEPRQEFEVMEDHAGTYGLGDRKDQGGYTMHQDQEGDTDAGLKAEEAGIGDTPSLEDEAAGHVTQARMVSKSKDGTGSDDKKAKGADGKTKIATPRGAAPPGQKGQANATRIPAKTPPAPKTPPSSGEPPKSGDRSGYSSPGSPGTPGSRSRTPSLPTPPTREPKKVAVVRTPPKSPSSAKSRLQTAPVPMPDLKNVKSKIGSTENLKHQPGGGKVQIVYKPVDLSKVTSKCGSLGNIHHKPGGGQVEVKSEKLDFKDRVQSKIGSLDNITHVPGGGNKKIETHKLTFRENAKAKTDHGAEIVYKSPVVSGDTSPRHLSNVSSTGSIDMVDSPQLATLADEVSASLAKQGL

| Protein | phosphorylation of Y-to-F tau mutants co-transfected with abl2 (western blot with anti-pY) (tau) | phosphorylation of tau at Y310 (western blot with YP21) (tau) | phosphorylation of the long (4R) isoform co-transfected with abl2 (western blot, sandwich ELISA) (tau) | tyrosine phosphorylation of tau with and without Gleevec (western blot, ELISA) (tau) | phosphorylation of the short (3R) isoform co-transfected with abl2 (western blot, sandwich ELISA) [1] | tyrosine phosphorylation of tau in the presence of Gleevec (western blot, ELISA) (tau) |
| --- | --- | --- | --- | --- | --- | --- |
| abl2 tyrosine kinase (protein) GQQVGRVGEAPGLQQPQPRGIRGSSAARPSGRRRDPAGRTTETGFNIFTQHDHFASCVEDGFEGDKTGGSSPEALHRPYGCDVEPQALNEAIRWSSKENLLGATESDPNLFVALYDFVASGDNTLSITKGEKLRVLGYNQNGEWSEVRSKNGQGWVPSNYITPVNSLEKHSWYHGPVSRSAAEYLLSSLINGSFLVRESESSPGQLSISLRYEGRVYHYRINTTADGKVYVTAESRFSTLAELVHHHSTVADGLVTTLHYPAPKCNKPTVYGVSPIHDKWEMERTDITMKHKLGGGQYGEVYVGVWKKYSLTVAVKTLKEDTMEVEEFLKEAAVMKEIKHPNLVQLLGVCTLEPPFYIVTEYMPYGNLLDYLRECNREEVTAVVLLYMATQISSAMEYLEKKNFIHRDLAARNCLVGENHVVKVADFGLSRLMTGDTYTAHAGAKFPIKWTAPESLAYNTFSIKSDVWAFGVLLWEIATYGMSPYPGIDLSQVYDLLEKGYRMEQPEGCPPKVYELMRACWKWSPADRPSFAETHQAFETMFHDSSISEEVAEELGRAASSSSVVPYLPRLPILPSKTRTLKKQVENKENIEGAQDATENSASSLAPGFIRGAQASSGSPALPRKQRDKSPSSLLEDAKETCFTRDRKGGFFSSFMKKRNAPTPPKRSSSFREMENQPHKKYELTGNFSSVASLQHADGFSFTPAQQEANLVPPKCYGGSFAQRNLCNDDGGGGGGSGTAGGGWSGITGFFTPRLIKKTLGLRAGKPTASDDTSKPFPRSNSTSSMSSGLPEQDRMAMTLPRNCQRSKLQLERTVSTSSQPEENVDRANDMLPKKSEESAAPSRERPKAKLLPRGATALPLRTPSGDLAITEKDPPGVGVAGVAAAPKGKEKNGGARLGMAGVPEDGEQPGWPSPAKAAPVLPTTHNHKVPVLISPTLKHTPADVQLIGTDSQGNKFKLLSEHQVTSSGDKDRPRRVKPKCAPPPPPVMRLLQHPSICSDPTEEPTALTAGQSTSETQEGGKKAALGAVPISGKAGRPVMPPPQVPLPTSSISPAKMANGTAGTKVALRKTKQAAEKISADKISKEALLECADLLSSALTEPVPNSQLVDTGHQLLDYCSGYVDCIPQTRNKFAFREAVSKLELSLQELQVSSAAAGVPGTNPVLNNLLSCVQEISDVVQR | Abl2 strongly phosphorylates Y394, with lower levels of phosphorylation at Y197 and Y310 | demonstrating phosphorylation of tau at Y310 | Y394 was the predominant site of abl2 phosphorylation | Abl1 or abl2 transfected into the cell is what directly phosphorylates tau | Y394 was the predominant site of abl2 phosphorylation | – |
| Gleevec-resistant abl2 (T3611 form) (protein) GQQVGRVGEAPGLQQPQPRGIRGSSAARPSGRRRDPAGRTTETGFNIFTQHDHFASCVEDGFEGDKTGGSSPEALHRPYGCDVEPQALNEAIRWSSKENLLGATESDPNLFVALYDFVASGDNTLSITKGEKLRVLGYNQNGEWSEVRSKNGQGWVPSNYITPVNSLEKHSWYHGPVSRSAAEYLLSSLINGSFLVRESESSPGQLSISLRYEGRVYHYRINTTADGKVYVTAESRFSTLAELVHHHSTVADGLVTTLHYPAPKCNKPTVYGVSPIHDKWEMERTDITMKHKLGGGQYGEVYVGVWKKYSLTVAVKTLKEDTMEVEEFLKEAAVMKEIKHPNLVQLLGVCTLEPPFYIVIEYMPYGNLLDYLRECNREEVTAVVLLYMATQISSAMEYLEKKNFIHRDLAARNCLVGENHVVKVADFGLSRLMTGDTYTAHAGAKFPIKWTAPESLAYNTFSIKSDVWAFGVLLWEIATYGMSPYPGIDLSQVYDLLEKGYRMEQPEGCPPKVYELMRACWKWSPADRPSFAETHQAFETMFHDSSISEEVAEELGRAASSSSVVPYLPRLPILPSKTRTLKKQVENKENIEGAQDATENSASSLAPGFIRGAQASSGSPALPRKQRDKSPSSLLEDAKETCFTRDRKGGFFSSFMKKRNAPTPPKRSSSFREMENQPHKKYELTGNFSSVASLQHADGFSFTPAQQEANLVPPKCYGGSFAQRNLCNDDGGGGGGSGTAGGGWSGITGFFTPRLIKKTLGLRAGKPTASDDTSKPFPRSNSTSSMSSGLPEQDRMAMTLPRNCQRSKLQLERTVSTSSQPEENVDRANDMLPKKSEESAAPSRERPKAKLLPRGATALPLRTPSGDLAITEKDPPGVGVAGVAAAPKGKEKNGGARLGMAGVPEDGEQPGWPSPAKAAPVLPTTHNHKVPVLISPTLKHTPADVQLIGTDSQGNKFKLLSEHQVTSSGDKDRPRRVKPKCAPPPPPVMRLLQHPSICSDPTEEPTALTAGQSTSETQEGGKKAALGAVPISGKAGRPVMPPPQVPLPTSSISPAKMANGTAGTKVALRKTKQAAEKISADKISKEALLECADLLSSALTEPVPNSQLVDTGHQLLDYCSGYVDCIPQTRNKFAFREAVSKLELSLQELQVSSAAAGVPGTNPVLNNLLSCVQEISDVVQR | – | – | – | – | – | In the presence of Gleevec, both forms could phosphorylate tau |

Reference: patent publication US20070134724
